Molecular target: human oxytocin receptor (human) (UniProt P30559)
Sequence of UniProt P30559 (P30559 whole entry): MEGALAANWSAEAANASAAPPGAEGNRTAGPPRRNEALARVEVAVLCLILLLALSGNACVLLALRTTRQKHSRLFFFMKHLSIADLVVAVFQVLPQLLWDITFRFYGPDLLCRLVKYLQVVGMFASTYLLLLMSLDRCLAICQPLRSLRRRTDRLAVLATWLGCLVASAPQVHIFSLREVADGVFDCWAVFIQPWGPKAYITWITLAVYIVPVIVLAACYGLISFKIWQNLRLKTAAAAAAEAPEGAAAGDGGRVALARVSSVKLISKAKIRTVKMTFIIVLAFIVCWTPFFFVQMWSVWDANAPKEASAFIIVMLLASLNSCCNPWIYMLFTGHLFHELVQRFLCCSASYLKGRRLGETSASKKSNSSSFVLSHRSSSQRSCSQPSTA

EC50 Ca2+ production: 42 nM
Substance: Oxytocin (peptide)

Reference: patent publication US20190328887A1
